According to publication PMC2817471:
Like-named read-outs stand apart in the source and are kept apart here.

Experiments:
[1] = target: T1, XPD (Sulfolobus acidocaldarius, UniProt Q4JC68 1-551); assay: ITC
T1 sequence: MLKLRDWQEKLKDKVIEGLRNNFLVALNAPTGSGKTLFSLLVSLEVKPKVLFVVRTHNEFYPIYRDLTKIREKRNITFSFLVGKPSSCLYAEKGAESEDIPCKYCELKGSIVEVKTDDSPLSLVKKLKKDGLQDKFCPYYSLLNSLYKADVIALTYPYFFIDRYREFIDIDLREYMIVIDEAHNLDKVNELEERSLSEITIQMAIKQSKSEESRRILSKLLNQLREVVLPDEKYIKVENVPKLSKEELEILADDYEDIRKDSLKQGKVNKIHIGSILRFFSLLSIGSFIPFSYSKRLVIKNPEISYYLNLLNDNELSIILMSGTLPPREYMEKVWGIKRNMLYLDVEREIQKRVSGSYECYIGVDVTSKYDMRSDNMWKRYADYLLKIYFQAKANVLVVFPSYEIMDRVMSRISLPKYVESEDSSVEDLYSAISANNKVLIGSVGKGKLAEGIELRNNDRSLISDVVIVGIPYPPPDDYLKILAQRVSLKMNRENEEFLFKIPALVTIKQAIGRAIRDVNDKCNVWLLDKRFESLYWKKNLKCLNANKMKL

[2] = target: T1, XPD; assay: ITC; remark: listed apart in the source

| Binder | Kd [1] [µM] | Kd [2] [µM] |
| --- | --- | --- |
| TTTTTTTT (ssDNA) [ITC-T8] | > 40 |  |
| TTTTTTTTTTTT (ssDNA) [ITC-T12] |  | 5.6 |
